# B1: full-length hepatitis B virus core protein Cp185 (natural protein)
# chain: MDIDPYKEFGATVELLSFLPSDFFPSVRDLLDTASALYREALESPEHCSPHHTALRQAILCWGELMTLATWVGNNLEDPASRDLVVNYVNTNMGLKIRQLLWFHISCLTFGRETVLEYLVSFGVWIRTPPAYRPPNAPILSTLPETTVVRRRDRGRSPRRRTPSPRRRRSQSPRRRRSQSRESQC
# Target: the molecule itself
# Assay: SAXS; steady state, flow cell; 1.14 mg/mL disassembled Cp185 in disassembly buffer (1.5 M GuHCl, 0.5 M LiCl, 50 mM HEPES pH 7.5, 2 mM DTT); monomer to dimer
protein,measurement,value
B1,stoichiometry N,2

# From PMC7458484 (ACS Nano, 2020)
